The results in this text go back to publication doi:10.1101/2022.02.25.481886.

The assay concerns the target RFP-VAP27-1 (Arabidopsis) (UniProt Q8VZ95). Description: FRET or BRET. (In general: In BRET a luciferase serves as donor, and the signal depends on an acceptor being close.)
Sequence of UniProt Q8VZ95 (Q8VZ95 whole entry): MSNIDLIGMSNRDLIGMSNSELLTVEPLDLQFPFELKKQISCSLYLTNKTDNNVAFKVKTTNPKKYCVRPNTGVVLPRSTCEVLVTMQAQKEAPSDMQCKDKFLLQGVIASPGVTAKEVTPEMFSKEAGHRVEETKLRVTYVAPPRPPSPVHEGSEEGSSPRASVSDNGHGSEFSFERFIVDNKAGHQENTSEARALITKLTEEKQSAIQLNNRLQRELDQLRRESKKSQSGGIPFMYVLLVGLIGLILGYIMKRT

With GFP-TraB1b (natural protein), the fluorescence lifetime of the GFP donor with the RFP acceptor stood at 2.21 ns.
